The values that follow are results of earlier work, collected in article PMC8329073.

The target of the data set is Thrombin (UniProt P00734+P00734). Conditions: 20 mM Tris-HCl pH 7.5 (22 °C), 100 mM NaCl, 0.1 mM EDTA, 5 mM MgCl2 (20 mM MgCl2 for DNAzyme), room temperature; indirect read-out by strand-displacement ….

In the case of thrombin DNA aptamer (parent, ref 67), the Kd (usually the free concentration of one partner at which half of the binding sites on the other are occupied at equilibrium, for simple one-to-one binding) was 0.5 nM.
